Assay results published in patent US20200148768A1.

Target: T1, human BTN1A1-ECD-His6 (human), Q13410
T1 chain: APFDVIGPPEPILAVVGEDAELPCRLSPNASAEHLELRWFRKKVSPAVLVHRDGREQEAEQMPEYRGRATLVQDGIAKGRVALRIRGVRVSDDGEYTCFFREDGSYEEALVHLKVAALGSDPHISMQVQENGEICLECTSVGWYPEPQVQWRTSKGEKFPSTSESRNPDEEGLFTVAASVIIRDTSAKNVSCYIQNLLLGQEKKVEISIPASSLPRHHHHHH
Experiment: SPR (Biacore), antibody on mIgG capture chip, BTN1A1-ECD-His 2-64 nM
Conditions: remark: other sources report otherwise

B1: STC810 (antibody, V domains shown)
VH: EVQLQQSGPELVKPGASVKISCKASGYTFTHYNMDWVKQSHGKSLEWIGYIYPSNGGTGYNQKFKSRATLTVDKSSSTAYMELHSLTSEDSAVYYCARGAYHYGSSYAYWYFDVWGAGTTVTVSS
VL: DIQMTQTTSSLSASLGDRVTISCSASQDISNYLNWYQQKPDETVKLLISYTSSLHSGVPSRFSGSGSGTDYSLTISNLAPEDIATYYCQQSSKLPFTFGSGTELEIKRA
modifications: here or on the partner: N-glycosylated (PNGase F sensitive)
Kd: 12.4 nM
